In patent US20180344812A1 (Scripps Research, published 2018):
Numbering of substitutions follows the chain as printed. Bridges are numbered along the chain shown (N, C = ends). Where no end group is shown, it is not given here. [ ]: non-standard residue; d: D form. L1 = C4 bis(bromoacetamide) staple without lipid; L4 = octadecanedioic acid-PEG-ornithine staple; L3 = myristic acid-PEG-PEG-ornithine staple; L5 = C18 diacid-Lys-PEG2-ornithine staple; L2 = myristic acid-PEG-ornithine staple; L6 = made as L5 but on Rink amide resin

T1: human Glucagon-like peptide 2 receptor (GLP-2R) (human, UniProt O95838 1-553)
T1 sequence (looked up): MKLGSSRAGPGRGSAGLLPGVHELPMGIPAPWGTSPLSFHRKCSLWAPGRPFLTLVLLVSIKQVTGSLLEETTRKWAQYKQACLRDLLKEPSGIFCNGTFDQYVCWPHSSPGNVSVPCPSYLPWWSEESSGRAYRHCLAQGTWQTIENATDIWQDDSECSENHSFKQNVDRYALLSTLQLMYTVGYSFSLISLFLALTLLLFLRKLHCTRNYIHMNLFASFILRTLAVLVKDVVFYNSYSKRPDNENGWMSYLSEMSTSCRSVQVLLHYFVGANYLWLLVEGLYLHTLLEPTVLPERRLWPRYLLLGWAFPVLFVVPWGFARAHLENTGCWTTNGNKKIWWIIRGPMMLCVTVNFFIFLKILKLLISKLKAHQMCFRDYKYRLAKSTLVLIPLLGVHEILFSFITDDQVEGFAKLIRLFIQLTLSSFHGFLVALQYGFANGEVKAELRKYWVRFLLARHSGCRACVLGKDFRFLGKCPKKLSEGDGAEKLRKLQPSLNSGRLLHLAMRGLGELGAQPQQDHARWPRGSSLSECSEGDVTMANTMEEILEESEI

T2: human Glucose-dependent insulinotropic polypeptide receptor (GIPR) (human, UniProt P48546 22-466)
T2 sequence (looked up): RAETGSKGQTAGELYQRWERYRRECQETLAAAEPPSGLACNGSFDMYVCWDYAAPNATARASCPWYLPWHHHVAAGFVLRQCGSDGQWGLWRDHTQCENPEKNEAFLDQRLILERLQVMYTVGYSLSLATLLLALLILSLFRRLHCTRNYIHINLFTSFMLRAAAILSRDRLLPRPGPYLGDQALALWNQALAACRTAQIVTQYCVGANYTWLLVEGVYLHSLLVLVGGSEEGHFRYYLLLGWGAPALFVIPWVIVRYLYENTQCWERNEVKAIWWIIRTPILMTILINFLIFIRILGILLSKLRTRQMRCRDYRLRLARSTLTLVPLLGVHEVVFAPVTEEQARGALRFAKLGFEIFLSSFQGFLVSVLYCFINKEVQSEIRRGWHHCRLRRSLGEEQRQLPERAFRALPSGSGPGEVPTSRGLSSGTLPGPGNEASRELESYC

B1: mTA 63: GLP-2 (H) and L5 (peptide)
peptide: HGDGSFSDEMNTILDNCAARDFICWLIQTKITDPSSGAPPPS
modifications: linker 17-24 via L5; also: staple L5 carries C18 diacid-Lys-PEG2-ornithine lipid
B2: mTA 68: GLP-2 (J) and L3 (peptide)
peptide: B1 peptide with N11C, C17L, A18C, C24N
modifications: linker 11-18 via L3; also: staple L3 carries myristic acid-PEG-PEG-ornithine lipid
B3: mTA 70: GLP-2 (J) and L5 (peptide)
peptide: B1 peptide with N11C, C17L, A18C, C24N
modifications: linker 11-18 via L5; also: staple L5 carries C18 diacid-Lys-PEG2-ornithine lipid
B4: mTA 65: GLP-2 (I) and L3 (peptide)
peptide: B1 peptide with E9C, N16C, C17L, C24N
modifications: linker 9-16 via L3; also: staple L3 carries myristic acid-PEG-PEG-ornithine lipid
B5: mTA 61: GLP-2 (H) and L3 (peptide)
peptide: B1 peptide
modifications: linker 17-24 via L3; also: staple L3 carries myristic acid-PEG-PEG-ornithine lipid

Target: T1, human Glucagon-like peptide 2 receptor …
Assay: cell-based or functional assay

For HGDGSFSCEMNTILCALAARDFINWLIQTKITD (linker 8-15 via L1) [mTA 53: GLP-2 (D) and L1], which “EC50, CRE-luciferase reporter in HEK293-GLP-2R-CRE cells” value (“EC50 … in HEK293-GLP-2R-CRE cells” below) is on record?
The value was 14.3 nM.

HGDGSFSDEMNTILDALAARCFINWLICTKITD (linker 21-28 via L1) [mTA 54: GLP-2 (E) and L1] was tested. Which “EC50 … in HEK293-GLP-2R-CRE cells” value did it give?
The value was 0.13 nM.

Which “EC50 … in HEK293-GLP-2R-CRE cells” value does the source give for HGDGSFSDEMNTILDNCAARDFICWLIQTKITDPSSGAPPPS (linker 17-24 via L1) [mTA 59: GLP-2 (H) and L1] here?
The value was 0.064 nM.

For HGDGSFSDEMNTILDNCAARDFICWLIQTKITDPSSGAPPPS (linker 17-24 via L2; also: staple L2 carries myristic acid-PEG-ornithine lipid) [mTA 60: GLP-2 (H) and L2], which “EC50 … in HEK293-GLP-2R-CRE cells” value is on record?
The value was 0.068 nM.

How did the “EC50 … in HEK293-GLP-2R-CRE cells” value turn out when HGDGSFSDCMNTILDCLAARDFINWLIQTKITDPSSGAPPPS (linker 9-16 via L5; also: staple L5 carries C18 diacid-Lys-PEG2-ornithine lipid) [mTA 67: GLP-2 (I) and L5] was run?
The value was 3.1 nM.

With B1 as the binder, how does the “EC50 … in HEK293-GLP-2R-CRE cells” value read?
The value was 2.66 nM.

B2 was tested. Which “EC50 … in HEK293-GLP-2R-CRE cells” value did it give?
The value was 0.028 nM.

Which “EC50 … in HEK293-GLP-2R-CRE cells” value does the source give for B3 here?
The value was 8.8 nM.

With HGDGSFSDEMNTILDNCAARDFICWLIQTKITDPSSGAPPPS (linker 17-24 via L6) [mTA 64: GLP-2 (H) and L6] as the binder, how does the “EC50 … in HEK293-GLP-2R-CRE cells” value read?
Its value is 0.7 nM.

Which “EC50 … in HEK293-GLP-2R-CRE cells” value does the source give for B4 here?
Its value is 0.06 nM.

How did the “EC50 … in HEK293-GLP-2R-CRE cells” value turn out when B5 was run?
Its value is 0.068 nM.

For HGDGSFSDEMNTILDNCAARDFICWLIQTKITD (linker 17-24 via L1) [mTA 46: GLP-2 (A) and L1], which “EC50 … in HEK293-GLP-2R-CRE cells” value is on record?
The value was 0.045 nM.

HGDGSFSDEMNTILDNCAARDFICWLIQTKITD (linker 17-24 via L2) [mTA 47: GLP-2 (A) and L2] was tested. Which “EC50 … in HEK293-GLP-2R-CRE cells” value did it give?
Its value is 0.041 nM.

For HGDGSFSDEMCTILDNLCARDFINWLIQTKITD (linker 11-18 via L5) [mTA 58: GLP-2 (G) and L5], which “EC50 … in HEK293-GLP-2R-CRE cells” value is on record?
Its value is 7.98 nM.

Which “EC50 … in HEK293-GLP-2R-CRE cells” value does the source give for HGDGSFSDEMCTILDNLCARDFINWLIQTKITD (linker 11-18 via L1) [mTA 57: GLP-2 (G) and L1] here?
The value was 0.046 nM.

How did the “EC50 … in HEK293-GLP-2R-CRE cells” value turn out when HGDGSFSDEMNTILDNCAARDFICWLIQTKITD (linker 17-24 via L5) [mTA 50: GLP-2 (A) and L5] was run?
The value was 6.4 nM.

Which “EC50 … in HEK293-GLP-2R-CRE cells” value does the source give for HGDGSFSDCMNTILDCLAARDFINWLIQTKITD (linker 9-16 via L1) [mTA 55: GLP-2 (F) and L1] here?
The value was 0.064 nM.

HGDGSFSDEMNTILDNCAARDFICWLIQTKITD (linker 17-24 via L4) [mTA 49: GLP-2 (A) and L4] was tested. Which “EC50 … in HEK293-GLP-2R-CRE cells” value did it give?
The value was 0.241 nM.

For HGDGSFSDEMNTILDNCAARDFICWLIQTKITD (linker 17-24 via L6) [mTA 51: GLP-2 (A) and L6], which “EC50 … in HEK293-GLP-2R-CRE cells” value is on record?
The value was 0.7 nM.

HGDGSFSDEMNTILDNCAARDFICWLIQTKITD (linker 17-24 via L3) [mTA 48: GLP-2 (A) and L3] was tested. Which “EC50 … in HEK293-GLP-2R-CRE cells” value did it give?
Its value is 0.045 nM.

Which “EC50 … in HEK293-GLP-2R-CRE cells” value does the source give for HGDGSFSDEMNTILDCLAARDFICWLIQTKITD (linker 16-24 via L1) [mTA 52: GLP-2 (C) and L1] here?
The value was 5.6 nM.

For HGDGSFSDCMNTILDCLAARDFINWLIQTKITD (linker 9-16 via L5) [mTA 56: GLP-2 (F) and L5], which “EC50 … in HEK293-GLP-2R-CRE cells” value is on record?
The value was 0.77 nM.

Target: human glucagon receptor (GCGR) (human, UniProt P47871 26-477)
Sequence (P47871 26-477): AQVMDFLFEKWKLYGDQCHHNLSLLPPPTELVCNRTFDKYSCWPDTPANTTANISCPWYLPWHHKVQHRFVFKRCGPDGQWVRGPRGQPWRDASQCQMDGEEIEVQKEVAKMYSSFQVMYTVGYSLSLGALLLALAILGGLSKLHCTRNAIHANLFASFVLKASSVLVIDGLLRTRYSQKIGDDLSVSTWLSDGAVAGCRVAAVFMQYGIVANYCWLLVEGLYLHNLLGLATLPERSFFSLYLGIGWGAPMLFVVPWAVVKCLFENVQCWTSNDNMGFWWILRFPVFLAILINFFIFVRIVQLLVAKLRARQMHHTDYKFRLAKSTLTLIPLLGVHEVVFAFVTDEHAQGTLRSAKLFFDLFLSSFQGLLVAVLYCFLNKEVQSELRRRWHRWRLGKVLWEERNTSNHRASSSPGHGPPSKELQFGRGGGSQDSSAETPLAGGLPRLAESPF
Assay: cell-based or functional assay

For Y[dA]EGTFISDYSKYLDECAAKEFICWLMNTKRNRNNIA (linker 17-24 via L1) [mTA 44: GLP-1/GIP/Glucagon (A) and L1], which “EC50, CRE-luciferase reporter in HEK293-GCGR-CRE cells” value is on record?
Its value is 1.6 nM.

Target: T3, human glucagon-like peptide 1 receptor (GLP-1R) (human, UniProt P43220 24-463)
Assay: cell-based or functional assay

Y[dA]EGTFISDYSKYLDECAAKEFICWLMNTKRNRNNIA (linker 17-24 via L1) [mTA 44: GLP-1/GIP/Glucagon (A) and L1] was tested. Which “EC50, CRE-luciferase reporter in HEK293-GLP-1R-CRE cells” value (shortened to “EC50 … in HEK293-GLP-1R-CRE cells”) did it give?
The value was 9.7 nM.

Target: T2, human Glucose-dependent insulinotropic …
Assay: cell-based or functional assay

Which “EC50, CRE-luciferase reporter in HEK293-GIPR-CRE cells” value (“EC50 … in HEK293-GIPR-CRE cells” for short) does the source give for Y[dA]EGTFISDYSKYLDECAAKEFICWLMNTKRNRNNIA (linker 17-24 via L1) [mTA 44: GLP-1/GIP/Glucagon (A) and L1] here?
Its value is 0.04 nM.

Target: T3, human glucagon-like peptide 1 receptor …
Assay: cell-based or functional assay
Remark: another data set of the same source

Which “EC50 … in HEK293-GLP-1R-CRE cells” value does the source give for Y[dA]EGTFTSDYSIYLDKCAAKEFVCWLLAGGPSSGAPPPSK (linker 17-24 via L1) [mTA 40: GLP-1/GIP (A) and L1] here?
Its value is 0.02 nM.

With Y[dA]EGTFTSDYSIYLDKCAAKEFVCWLLAGGPSSGAPPPSK (linker 17-24 via L5) [mTA 43: GLP-1/GIP (A) and L5] as the binder, how does the “EC50 … in HEK293-GLP-1R-CRE cells” value read?
The value was 0.5 nM.

For Y[dA]EGTFTSDYSIYLDKCAAKEFVCWLLAGGPSSGAPPPSK (linker 17-24 via L3) [mTA 41: GLP-1/GIP (A) and L3], which “EC50 … in HEK293-GLP-1R-CRE cells” value is on record?
The value was 0.02 nM.

Target: T2, human Glucose-dependent insulinotropic …
Assay: cell-based or functional assay
Remark: another data set of the same source

With Y[dA]EGTFTSDYSIYLDKCAAKEFVCWLLAGGPSSGAPPPSK (linker 17-24 via L1) [mTA 40: GLP-1/GIP (A) and L1] as the binder, how does the “EC50 … in HEK293-GIPR-CRE cells” value read?
The value was 0.02 nM.

With Y[dA]EGTFTSDYSIYLDKCAAKEFVCWLLAGGPSSGAPPPSK (linker 17-24 via L5) [mTA 43: GLP-1/GIP (A) and L5] as the binder, how does the “EC50 … in HEK293-GIPR-CRE cells” value read?
Its value is 1.1 nM.

Which “EC50 … in HEK293-GIPR-CRE cells” value does the source give for Y[dA]EGTFTSDYSIYLDKCAAKEFVCWLLAGGPSSGAPPPSK (linker 17-24 via L3) [mTA 41: GLP-1/GIP (A) and L3] here?
The value was 0.06 nM.
